In the supplement of paper PMC10065799, “High-throughput profiling of sequence recognition by tyrosine kinases and SH2 domains using bacterial peptide display” (eLife, 2023):

The sequences below were run against EPHB2 (UniProt P29323) (assay: phosphorylation enrichment, bacterial display (enrichment ratio); higher = better substrate or ligand; peptides without Tyr show the background).
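Further: 11-residue human phosphosite peptides and single-mutation variants displayed on the E. coli surface, counted by deep sequencing, each peptide's frequency after selection divided by its frequency in the unselected input library; frequency after pTyr selection over input frequency; kinase dosed for 20-30% of maximal phosphorylation in three min.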

EPHB2, sequence (P29323 whole entry, looked up): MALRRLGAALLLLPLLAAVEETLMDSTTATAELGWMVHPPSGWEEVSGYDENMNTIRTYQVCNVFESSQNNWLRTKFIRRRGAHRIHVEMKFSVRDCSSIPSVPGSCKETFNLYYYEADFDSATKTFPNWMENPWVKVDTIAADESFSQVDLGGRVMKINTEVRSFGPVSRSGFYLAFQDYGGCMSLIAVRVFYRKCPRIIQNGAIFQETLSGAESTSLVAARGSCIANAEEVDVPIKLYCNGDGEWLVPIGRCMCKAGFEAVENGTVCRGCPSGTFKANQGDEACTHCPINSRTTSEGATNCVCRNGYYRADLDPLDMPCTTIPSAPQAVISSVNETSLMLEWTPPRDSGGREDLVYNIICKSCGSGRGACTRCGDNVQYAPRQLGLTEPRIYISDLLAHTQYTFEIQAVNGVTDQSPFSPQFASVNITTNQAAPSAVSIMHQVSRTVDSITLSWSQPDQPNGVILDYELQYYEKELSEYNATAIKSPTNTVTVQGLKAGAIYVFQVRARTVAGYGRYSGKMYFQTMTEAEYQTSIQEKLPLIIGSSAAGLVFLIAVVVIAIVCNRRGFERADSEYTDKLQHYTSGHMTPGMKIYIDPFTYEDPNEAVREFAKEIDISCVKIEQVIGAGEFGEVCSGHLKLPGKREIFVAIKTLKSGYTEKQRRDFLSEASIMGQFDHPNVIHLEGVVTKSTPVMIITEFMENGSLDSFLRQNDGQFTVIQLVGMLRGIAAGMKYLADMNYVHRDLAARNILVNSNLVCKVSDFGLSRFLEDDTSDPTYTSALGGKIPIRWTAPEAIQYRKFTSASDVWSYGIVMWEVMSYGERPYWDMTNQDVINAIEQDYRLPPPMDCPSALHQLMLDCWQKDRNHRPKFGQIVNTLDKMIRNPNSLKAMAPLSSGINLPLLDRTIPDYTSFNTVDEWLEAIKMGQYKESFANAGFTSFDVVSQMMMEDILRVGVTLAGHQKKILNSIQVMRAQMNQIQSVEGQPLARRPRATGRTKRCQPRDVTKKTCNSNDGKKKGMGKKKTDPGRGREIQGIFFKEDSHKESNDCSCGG

Row | Sequence | phosphorylation enrichment
1 | FRTPGYREVVI [TNS2_Y673_A670T_YF] | 0.446
2 | ISNATYKQIGL [FLT1_Y199_E201Q] | 0.342
3 | GRLFAYPDTHC [CAT_Y358_R363C] | 0.512
4 | SLGKGYSDGGC [MC4R_Y35] | 0.473
5 | EEGNPYYSGAR [MCCC2_Y520_S523G] | 0.551
6 | GFPVRYTDVSN [DNMT3B_Y815_H814R] | 0.441
7 | EIVFVYVKKRS [DNAI2_Y7_YF] | 0.476
8 | QPSPSYDSSGG [TCF12_Y70_R74G] | 0.778
9 | WSRAMYPDLGP [STARD8_Y330] | 0.397
10 | IFHENYNAGTF [CFI_Y421_YF] | 0.388
11 | DMGAQYAAASR [ARID1B_Y483_P488R] | 0.375
12 | FQGRRYDCDCD [CRYGS_Y21] | 0.383
13 | HNVPIYEGFGL [ACTA1_Y168_A172G_YF] | 27.6
14 | PSTYRYERGSR [INPPL1_Y663_P659S] | 0.511
15 | NAGAFYALSTL [FLVCR2_Y325] | 0.784
16 | IEPVIYVVQRR [ANOS1_Y217] | 0.486
17 | PSSNLYYRWLT [CNGA3_Y168] | 4.17

Row | Sequence | phosphorylation enrichment
18 | ETELPYQELQG [TYROBP_Y91_S89L] | 0.58
19 | LRSKQYLRNPP [SHC1_Y315_F312S] | 0.359
20 | KSFDMYSGDVM [FAM3D_Y122_A118S] | 1.22
21 | ADRNHYRRFPR [YBX1_Y145_YF] | 0.54
22 | QQMGTYGVRAA [ICAM2_Y260_R256Q] | 0.414
23 | DDYDLYGGEKF [PTPN11_Y66_Y62D] | 2.85
24 | MTRDIYETDFF [INSR_Y1185_YF] | 0.788
25 | KLIETCFSKNF [PLP1_Y50_Y50C_YF] | 0.523
26 | RIFDFYSARKT [STOX1_Y858_A863T_YF] | 0.553
27 | FRDALYKFIVD [PHEX_Y250_M253I_YF] | 0.489
28 | GDGRFYMKEAI [PGM1_Y66] | 0.613
29 | YKEDPYLVVNP [MCM6_Y810_E806K] | 0.515
30 | PSPMPYACCQM [FOXL2_Y215_S217C] | 0.437
31 | IPTPAYQSLPA [PDCD6IP_Y727_S730L] | 0.501
32 | IFRASYFRRGD [LTK_Y676_YF] | 0.438
33 | DSYWSYCNAVA [SLC20A2_Y436_S434W] | 1.93

The sequences below were run against Fes (UniProt P07332) in the same assay as above.
Fes, sequence (P07332 whole entry, looked up): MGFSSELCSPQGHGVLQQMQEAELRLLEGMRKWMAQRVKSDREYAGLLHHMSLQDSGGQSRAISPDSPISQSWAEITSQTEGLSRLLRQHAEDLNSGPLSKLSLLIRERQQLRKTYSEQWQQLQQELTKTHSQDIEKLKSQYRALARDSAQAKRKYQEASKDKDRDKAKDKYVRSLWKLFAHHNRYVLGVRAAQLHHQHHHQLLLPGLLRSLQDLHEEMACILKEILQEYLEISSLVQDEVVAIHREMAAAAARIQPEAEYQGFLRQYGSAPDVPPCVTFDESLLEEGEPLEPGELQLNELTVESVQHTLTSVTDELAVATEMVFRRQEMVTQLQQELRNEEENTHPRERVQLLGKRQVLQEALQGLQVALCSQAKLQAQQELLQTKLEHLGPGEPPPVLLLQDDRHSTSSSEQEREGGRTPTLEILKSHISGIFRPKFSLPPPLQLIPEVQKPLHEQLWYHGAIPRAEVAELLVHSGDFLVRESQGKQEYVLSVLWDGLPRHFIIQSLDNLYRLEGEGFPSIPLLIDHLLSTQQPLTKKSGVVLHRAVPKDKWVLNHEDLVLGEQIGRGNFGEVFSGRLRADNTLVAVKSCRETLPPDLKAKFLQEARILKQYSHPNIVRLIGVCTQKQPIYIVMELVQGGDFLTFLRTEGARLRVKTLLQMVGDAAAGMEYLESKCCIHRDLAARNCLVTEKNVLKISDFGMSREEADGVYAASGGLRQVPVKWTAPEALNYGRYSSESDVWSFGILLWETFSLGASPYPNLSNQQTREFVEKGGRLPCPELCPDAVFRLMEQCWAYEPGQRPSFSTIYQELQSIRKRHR

Row | Sequence | phosphorylation enrichment
34 | FRTPGYREVVI [TNS2_Y673_A670T_YF] | 0.814
35 | ISNATYKQIGL [FLT1_Y199_E201Q] | 0.582
36 | GRLFAYPDTHC [CAT_Y358_R363C] | 1.05
37 | SLGKGYSDGGC [MC4R_Y35] | 0.773
38 | EEGNPYYSGAR [MCCC2_Y520_S523G] | 0.917
39 | GFPVRYTDVSN [DNMT3B_Y815_H814R] | 0.665
40 | EIVFVYVKKRS [DNAI2_Y7_YF] | 1.05
41 | QPSPSYDSSGG [TCF12_Y70_R74G] | 0.731
42 | WSRAMYPDLGP [STARD8_Y330] | 0.779
43 | IFHENYNAGTF [CFI_Y421_YF] | 0.647
44 | DMGAQYAAASR [ARID1B_Y483_P488R] | 0.54
45 | FQGRRYDCDCD [CRYGS_Y21] | 0.936
46 | HNVPIYEGFGL [ACTA1_Y168_A172G_YF] | 4.3
47 | PSTYRYERGSR [INPPL1_Y663_P659S] | 0.59
48 | NAGAFYALSTL [FLVCR2_Y325] | 0.764
49 | IEPVIYVVQRR [ANOS1_Y217] | 1.23
50 | PSSNLYYRWLT [CNGA3_Y168] | 1.4

Row | Sequence | phosphorylation enrichment
51 | ETELPYQELQG [TYROBP_Y91_S89L] | 1.18
52 | LRSKQYLRNPP [SHC1_Y315_F312S] | 0.619
53 | KSFDMYSGDVM [FAM3D_Y122_A118S] | 0.856
54 | ADRNHYRRFPR [YBX1_Y145_YF] | 0.71
55 | QQMGTYGVRAA [ICAM2_Y260_R256Q] | 0.579
56 | DDYDLYGGEKF [PTPN11_Y66_Y62D] | 1.1
57 | MTRDIYETDFF [INSR_Y1185_YF] | 1.39
58 | KLIETCFSKNF [PLP1_Y50_Y50C_YF] | 1.23
59 | RIFDFYSARKT [STOX1_Y858_A863T_YF] | 0.833
60 | FRDALYKFIVD [PHEX_Y250_M253I_YF] | 1.32
61 | GDGRFYMKEAI [PGM1_Y66] | 1.11
62 | YKEDPYLVVNP [MCM6_Y810_E806K] | 1.11
63 | PSPMPYACCQM [FOXL2_Y215_S217C] | 1.3
64 | IPTPAYQSLPA [PDCD6IP_Y727_S730L] | 0.624
65 | IFRASYFRRGD [LTK_Y676_YF] | 0.879
66 | DSYWSYCNAVA [SLC20A2_Y436_S434W] | 1.12

These sequences were tested on c-Abl (mouse) in the same assay as above.

Row | Sequence | phosphorylation enrichment
67 | FRTPGYREVVI [TNS2_Y673_A670T_YF] | 0.597
68 | ISNATYKQIGL [FLT1_Y199_E201Q] | 0.566
69 | GRLFAYPDTHC [CAT_Y358_R363C] | 0.75
70 | SLGKGYSDGGC [MC4R_Y35] | 0.603
71 | EEGNPYYSGAR [MCCC2_Y520_S523G] | 0.597
72 | GFPVRYTDVSN [DNMT3B_Y815_H814R] | 0.529
73 | EIVFVYVKKRS [DNAI2_Y7_YF] | 0.585
74 | QPSPSYDSSGG [TCF12_Y70_R74G] | 0.477
75 | WSRAMYPDLGP [STARD8_Y330] | 0.52
76 | IFHENYNAGTF [CFI_Y421_YF] | 0.578
77 | DMGAQYAAASR [ARID1B_Y483_P488R] | 0.644
78 | FQGRRYDCDCD [CRYGS_Y21] | 0.647
79 | HNVPIYEGFGL [ACTA1_Y168_A172G_YF] | 7.97
80 | PSTYRYERGSR [INPPL1_Y663_P659S] | 0.446
81 | NAGAFYALSTL [FLVCR2_Y325] | 0.608
82 | IEPVIYVVQRR [ANOS1_Y217] | 0.58
83 | PSSNLYYRWLT [CNGA3_Y168] | 7.69

Row | Sequence | phosphorylation enrichment
84 | ETELPYQELQG [TYROBP_Y91_S89L] | 0.872
85 | LRSKQYLRNPP [SHC1_Y315_F312S] | 0.575
86 | KSFDMYSGDVM [FAM3D_Y122_A118S] | 0.609
87 | ADRNHYRRFPR [YBX1_Y145_YF] | 0.871
88 | QQMGTYGVRAA [ICAM2_Y260_R256Q] | 0.442
89 | DDYDLYGGEKF [PTPN11_Y66_Y62D] | 0.871
90 | MTRDIYETDFF [INSR_Y1185_YF] | 0.909
91 | KLIETCFSKNF [PLP1_Y50_Y50C_YF] | 0.826
92 | RIFDFYSARKT [STOX1_Y858_A863T_YF] | 0.491
93 | FRDALYKFIVD [PHEX_Y250_M253I_YF] | 0.809
94 | GDGRFYMKEAI [PGM1_Y66] | 0.709
95 | YKEDPYLVVNP [MCM6_Y810_E806K] | 0.662
96 | PSPMPYACCQM [FOXL2_Y215_S217C] | 0.49
97 | IPTPAYQSLPA [PDCD6IP_Y727_S730L] | 0.546
98 | IFRASYFRRGD [LTK_Y676_YF] | 0.63
99 | DSYWSYCNAVA [SLC20A2_Y436_S434W] | 1.45

The sequences below were run against EPHB1 (UniProt P54762) in the same assay as above.
EPHB1, sequence (P54762 whole entry, looked up): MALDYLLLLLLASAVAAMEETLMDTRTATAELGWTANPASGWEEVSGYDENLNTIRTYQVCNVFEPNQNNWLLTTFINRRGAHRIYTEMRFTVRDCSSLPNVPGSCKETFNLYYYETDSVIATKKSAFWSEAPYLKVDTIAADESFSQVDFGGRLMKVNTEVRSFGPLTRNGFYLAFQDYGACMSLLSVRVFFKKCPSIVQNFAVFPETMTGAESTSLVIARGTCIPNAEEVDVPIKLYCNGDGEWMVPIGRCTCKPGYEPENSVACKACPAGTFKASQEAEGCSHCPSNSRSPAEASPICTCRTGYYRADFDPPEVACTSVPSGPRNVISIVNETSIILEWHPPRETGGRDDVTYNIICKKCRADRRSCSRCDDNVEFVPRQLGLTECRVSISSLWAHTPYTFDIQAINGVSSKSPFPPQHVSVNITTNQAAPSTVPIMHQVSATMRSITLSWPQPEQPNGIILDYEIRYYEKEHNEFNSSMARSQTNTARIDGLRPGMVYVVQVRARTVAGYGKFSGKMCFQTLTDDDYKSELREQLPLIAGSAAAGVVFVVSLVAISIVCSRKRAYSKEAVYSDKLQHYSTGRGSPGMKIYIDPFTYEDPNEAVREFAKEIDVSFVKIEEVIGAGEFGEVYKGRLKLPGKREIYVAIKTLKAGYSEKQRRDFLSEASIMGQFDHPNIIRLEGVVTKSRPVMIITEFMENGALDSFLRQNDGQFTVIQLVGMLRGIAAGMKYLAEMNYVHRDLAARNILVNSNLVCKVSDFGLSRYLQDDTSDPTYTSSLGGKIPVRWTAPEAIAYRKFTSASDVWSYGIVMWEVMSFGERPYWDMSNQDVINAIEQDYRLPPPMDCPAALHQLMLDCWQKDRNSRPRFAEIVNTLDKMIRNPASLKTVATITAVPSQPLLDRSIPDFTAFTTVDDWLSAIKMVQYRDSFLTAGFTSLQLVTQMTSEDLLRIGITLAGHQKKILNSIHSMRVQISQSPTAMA

Row | Sequence | phosphorylation enrichment
100 | FRTPGYREVVI [TNS2_Y673_A670T_YF] | 0.418
101 | ISNATYKQIGL [FLT1_Y199_E201Q] | 0.421
102 | GRLFAYPDTHC [CAT_Y358_R363C] | 0.556
103 | SLGKGYSDGGC [MC4R_Y35] | 0.456
104 | EEGNPYYSGAR [MCCC2_Y520_S523G] | 0.409
105 | GFPVRYTDVSN [DNMT3B_Y815_H814R] | 0.678
106 | EIVFVYVKKRS [DNAI2_Y7_YF] | 0.373
107 | QPSPSYDSSGG [TCF12_Y70_R74G] | 0.44
108 | WSRAMYPDLGP [STARD8_Y330] | 0.396
109 | IFHENYNAGTF [CFI_Y421_YF] | 0.36
110 | DMGAQYAAASR [ARID1B_Y483_P488R] | 0.371
111 | FQGRRYDCDCD [CRYGS_Y21] | 0.373
112 | HNVPIYEGFGL [ACTA1_Y168_A172G_YF] | 24.2
113 | PSTYRYERGSR [INPPL1_Y663_P659S] | 0.663
114 | NAGAFYALSTL [FLVCR2_Y325] | 0.822
115 | IEPVIYVVQRR [ANOS1_Y217] | 0.209
116 | PSSNLYYRWLT [CNGA3_Y168] | 3.17

Row | Sequence | phosphorylation enrichment
117 | ETELPYQELQG [TYROBP_Y91_S89L] | 0.535
118 | LRSKQYLRNPP [SHC1_Y315_F312S] | 0.426
119 | KSFDMYSGDVM [FAM3D_Y122_A118S] | 1.6
120 | ADRNHYRRFPR [YBX1_Y145_YF] | 0.452
121 | QQMGTYGVRAA [ICAM2_Y260_R256Q] | 0.281
122 | DDYDLYGGEKF [PTPN11_Y66_Y62D] | 0.915
123 | MTRDIYETDFF [INSR_Y1185_YF] | 0.936
124 | KLIETCFSKNF [PLP1_Y50_Y50C_YF] | 0.581
125 | RIFDFYSARKT [STOX1_Y858_A863T_YF] | 0.467
126 | FRDALYKFIVD [PHEX_Y250_M253I_YF] | 0.644
127 | GDGRFYMKEAI [PGM1_Y66] | 0.552
128 | YKEDPYLVVNP [MCM6_Y810_E806K] | 0.405
129 | PSPMPYACCQM [FOXL2_Y215_S217C] | 0.663
130 | IPTPAYQSLPA [PDCD6IP_Y727_S730L] | 0.506
131 | IFRASYFRRGD [LTK_Y676_YF] | 0.431
132 | DSYWSYCNAVA [SLC20A2_Y436_S434W] | 2.64
